From the nanobody polyreactivity screen of Harvey et al. (2022) come the findings set out here.

This data set in a line: yeast display, Sf9 membrane polyspecificity reagent, FACS + sequencing; frameworks hold sequencing errors. An outline of the steps:
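Polyreactivity labels are assigned by the sorting gate from which each nanobody was recovered. The gates were low and high (top ~1%), set on anti-HA fluorescence for expression and streptavidin fluorescence for reagent binding. Before sorting, galactose-induced (36–48 hours) yeast display cells were stained for 1 hour at 4 °C with 10% biotinylated, detergent-solubilized Sf9 membrane reagent.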
As to “QVQLVESGGGLVQAGGSLRLSCAASGNIFSTYAMGWDRQAPGKERELVAAISSRGTSTYYADSVKGRFTISRDNAKNTVYLQMNSLKPEDTAVYYCNAVIALQLDYWGQGTQVTVSS”, the “polyreactivity (PSR sort gate)” value is on record as “high polyreactivity”.
The entry for “QVQLVESGGGLVQAGGSLRLSCAASGNIFSVYAMVWYRPAPGKERELVAAISSSGGRTYYADSVKGRFTISRDNAKNTVYLQMNSLKPEDTAVYYCAARSYTGQFGYWGQGTQVTVSS” is “high polyreactivity”.
Regarding “QVQLVESGGGLVQAGGSLRLSCAASGNIFSYNAMGWYRQAPGKERELVAGISTAGTTSYADSVKGRFTISRDNAKNTVYLQLNSLKPEDTAVYYCAKRRYYWTNLHYFLGYDYWGQGTQVTVSS”, the “polyreactivity (PSR sort gate)” value is listed as “low polyreactivity”.
The entry for “QVQLVESGGGLVQAGGSLRLSCAASGNIFTTYAMGWYRQAPGKERELVAAISRTGGRTSYADSVKGRFTISRDNAKNTVYLQMNSLKPEDTAVYYCAAVPTVRPSAPRARILSDYWGQGTQVTVSS” is “high polyreactivity”; for “QVQLVESGGGLVQAGGSLRLSCAASGNIFVAYPMGWYRKATGKERELVAVISNGGRTYYADSVKGRFTISRDNAKNTVYLQMNSLKPEDTAVYYCATVAHASYGWHNYWGQGTQVTVSS” it is “high polyreactivity”; for “QVQLVESGGGLVQAGGSLRLSCAASGNIFVPNAMGWYRQAPGKERGLVAAIRRGGSTNYADSVKGRFTISRDNAKNNVYLQMNSLKPEDTGVYYCARSRVSFTDLEGYYWGQGTQVTVSS” it is “low polyreactivity”.
“QVQLVESGGGLVQAGGSLRLSCAASGNIFVRYAMGWYRQAPGKERELVAAISSSGGRTYYADSVKGRFTISRDNAKNTVYLQMNSLKPEDTAVYYCADAQGNAHRDYWGQGTQVTVSS”: the “polyreactivity (PSR sort gate)” value was “high polyreactivity”.
As to “QVQLVESGGGLVQAGGSLRLSCAASGNIFVYYAMGWYRQAPGKERELVASITTSGGSTYYADSVKGRFTISRDNAKNTVYLQMNSLKPEDTAVYYCAALYYYWMDYWGQGTQVTVSS”, the “polyreactivity (PSR sort gate)” value is recorded as “low polyreactivity”.
For the sequence “QVQLVESGGGLVQAGGSLRLSCAASGNIFWAYAMGWYRQAPGKERELVAAISGRSGSTYYADSVKGRFTISRDNAKNTVYLQMNSLKPEDTAVYYCNARPRYTSGGYDYWGQGTQVTVSS”, the “polyreactivity (PSR sort gate)” value is reported as “low polyreactivity”.
As for “QVQLVESGGGLVQAGGSLRLSCAASGNIFYGYAMGWYRQAPGKERELVARINWSGSRTYYADSVKGRFTISRDNAKNSVYLQMNSLKPEDTAVYYCNTSTSRVPGNGDYWGQGTQVTVSS”, the “polyreactivity (PSR sort gate)” value is on record as “high polyreactivity”.
For “QVQLVESGGGLVQAGGSLRLSCAASGNIFYKYDMGWYRQAPGKERELVATISSDANTKYADSLKGRFTISRDNAKNTVYLQMNSLKPEDTPVYYCNVKDPVVRGALRDPTEYDSWGQGTQVTVSS”, the “polyreactivity (PSR sort gate)” value is “low polyreactivity”.
In the case of “QVQLVESGGGLVQAGGSLRLSCAASGNIFYLNTMGWYRQAPGKERELVASITRSTGSTYYADSVKGRFTISRDNAKNTVYLQMNSLKPEDTAVYYCAADWSLNKTPRLKGYTFRDDYWGQGTQVTVTS”, the “polyreactivity (PSR sort gate)” value is recorded as “low polyreactivity”.
With “QVQLVESGGGLVQAGGSLRLSCAASGNIFYNVMGWYRQAPGKVRELVAVISSGDSTYYADSVKGRFTISRDNAKNTVYLQMNSLIPEDTAVYYCNAQWITSAYLLYSYDYWWGYDYWGQGTQVTVSS” the entry was “high polyreactivity”; with “QVQLVESGGGLVQAGGSLRLSCAASGNIFYRNAMGWYRQAPGKERELVAGITTSGDSTYYADSVKGRFTISRDNAKNTVYLQMNSLKPEDTAVYYCAASSHRYKYSSSYYYWGQGTQVTVSS”, “high polyreactivity”; with “QVQLVESGGGLVQAGGSLRLSCAASGNIFYRYAMGWYRQAPGKERELVAAISGNSGNTYYADSVKGRFTISRDNAKNTVYLQMNSLKPEDTAVYYCAVRRKSFRQTSYNYWGQGTQVTVSS”, “high polyreactivity”.
Turning to “QVQLVESGGGLVQAGGSLRLSCAASGNIFYTYAMGWYRQAPGKERELVAAITWSGGSTYYADSVKGRFTISRDNAKNTVYLQMNSLKPEDTAVYYCAAESLGYYYSGGYYSIYDHWGQGTQVTVSS”, the “polyreactivity (PSR sort gate)” value is recorded as “high polyreactivity”.
In the case of “QVQLVESGGGLVQAGGSLRLSCAASGNIFYYNAMGGNRQAPGKERELVAAITTGGSTNYADSVKGRFTISRDNAKNTVYLQMNSLTPEDTAVYDCAADFIRYINRLLYDYWGQGTQVTVSS”, the “polyreactivity (PSR sort gate)” value is “low polyreactivity”.
Turning to “QVQLVESGGGLVQAGGSLRLSCAASGNIFYYYAMGWYRQAPGKERELVAAISNGITYYADSVKGRFTISRDNAKNTVYLQMNSLKPEDTAVYYCAVDSDGNVRAVSGESLYDYWGQGTQVTVSS”, the “polyreactivity (PSR sort gate)” value is “low polyreactivity”.
“QVQLVESGGGLVQAGGSLRLSCAASGNIFYYYAMGWYRQAPGKERELVAAISWRGGITYYANSVKGRFTISRDNAKNTVYLQMNSLKPEDNAVYYCNAVQPGYPNGFAVRYNYWGQGTQVTVSS”: the “polyreactivity (PSR sort gate)” value is listed as “low polyreactivity”.
Regarding “QVQLVESGGGLVQAGGSLRLSCAASGNIFYYYAMGWYRQAPGKERELVATISKGGGSTNYADSVKGRFTISRDNAKNTVYLQMNSLKPEDTAVYYCNASYVSRRYHFDYWGQGTQVTVSS”, the “polyreactivity (PSR sort gate)” value was “high polyreactivity”.
Regarding “QVQLVESGGGLVQAGGSLRLSCAASGNILFYNAMGWYRQAPGKERELVAAISRSAGSTYYADSVKGRFTISRDNAKNTVYLQMNSLKPEDTAVYYCAAQYFRRSVYWGQGTQVTVSS”, the “polyreactivity (PSR sort gate)” value is recorded as “high polyreactivity”.
The entry for “QVQLVESGGGLVQAGGSLRLSCAASGNILIGNVMGWYRQAPGKERELVAAITSGGDTYYADSVKGRFTISRDNAKNTVNLQMNSLKPEDTAVYYCAADRPGQPKYEYWGQGTQVTVSS” is “low polyreactivity”.
With “QVQLVESGGGLVQAGGSLRLSCAASGNISYTYVMGWSRQAPGKHRELVAAITWSTGSTYYADSVKGRFTISRDNAKNTVYLQMNSLKPEDTAVYYCAVDGGEFSSYGYWGQGTQVTVSS”, the “polyreactivity (PSR sort gate)” value is reported as “low polyreactivity”.
On to “QVQLVESGGGLVQAGGSLRLSCAASGNIYSWYAMGWYRQAPGKERELVAVISRSGGSTYYADSVKGRFTISRDNAKNTVYLQMNSLKPEDTAVYYCAARAYRTPYSIQFDYWGQGTQVTVSS”, for which the “polyreactivity (PSR sort gate)” value is “high polyreactivity”.
Consider “QVQLVESGGGLVQAGGSLRLSCAASGNTFAQNTMGWYRQAPGKEREFVAGITFSGTGTYYADSVKGRFTISRDNAKNTVYLQMNSLKPEDTAVYYCAAESVYTWYYQDDDDYWGQGTQVTVSS”, for which the “polyreactivity (PSR sort gate)” value is given as “low polyreactivity”.
On to “QVQLVESGGGLVQAGGSLRLSCAASGNTFCQYAMGWYRQAPGKERELVAAITRSTGSTYYADSVNGRFTISRDNAKNTVYLQMISLKPEDTAVYYCAADFYRHYFRVDSWGQGTQVTVSS”, for which the “polyreactivity (PSR sort gate)” value is reported as “low polyreactivity”.
The entry for “QVQLVESGGGLVQAGGSLRLSCAASGNTFDGNAMGWYRQAPGQERELVAAINYSGASTSYADSVKGRFTISRDNAKNTVYLQMNSLKREDTAVYYCAADYPPLYRKYDYWGHGTQVTVSS” is “low polyreactivity”; for “QVQLVESGGGLVQAGGSLRLSCAASGNTFEYYAMGWYRQAPGKERELVAAITSGGSTNYADSVKGRFTISRDNAKNTVYYQMNSLKPEDTAVYYCAADQWGYEYDYWGQGTQVTVSS” it is “low polyreactivity”; for “QVQLVESGGGLVQAGGSLRLSCAASGNTFEYYVMGWYRQAPGKERELVAAITWSTGSTYYADSVKGRFTISRDNAKNTVYLQMNSLKPEDTAVYYCAALYYFIFGRPTRFDYWGQGTQVTVSS” it is “low polyreactivity”.
The entry for “QVQLVESGGGLVQAGGSLRLSCAASGNTFGLYAMGWYRQAPGKEREFVADITTDGGTTYYADSVKGRFTISRDNAKNTVYLQMNSLKPEDTAVYYCAKLGTFGQHQYDYWGQGTQVTVSS” is “low polyreactivity”.
With “QVQLVESGGGLVQAGGSLRLSCAASGNTFGRYAMGWYRQAPGKERELVASIRGSSVRTFYADSVKGRFTISRDNAKNTVYLQMNSLKPEDTAVYYCAKRGYAYPSSYDSWGQGTQVTVSS” the entry was “high polyreactivity”.
Turning to “QVQLVESGGGLVQAGGSLRLSCAASGNTFGYYAMGWYRQAPGKERELVAAITWNGDRTYYADSVKGRFTISRDNAKNTVYLQMNSLKPEDTAVYYCNKVNPYRHGYWGQGTQVTVSS”, the “polyreactivity (PSR sort gate)” value was “high polyreactivity”.
In the case of “QVQLVESGGGLVQAGGSLRLSCAASGNTFHPYAMGWYRQAPGKERALVAAITKSGGSTYYADSVKGRFTISRDNAKNTVYLQMNSLKPEDTAVYYCATDGYEYTDYGSSGYDYWGQGTQVTVSS”, the “polyreactivity (PSR sort gate)” value is on record as “low polyreactivity”.
On to “QVQLVESGGGLVQAGGSLRLSCAASGNTFIEYAMGWYRQAPGKERELVAAINWNGGSTYYADSVKGRFTISRDNAKNTVYLQMNSLKPEDTAVYYCYADYPQYWDYRTSDYTYGTYNYWGQGTQVTVSS”, for which the “polyreactivity (PSR sort gate)” value is on record as “low polyreactivity”.
Take “QVQLVESGGGLVQAGGSLRLSCAASGNTFIGNAMGWYRQAPGKERELVAAISWSTDSTYYADSVKGRFTISRDNAKNSVYLQMNSLKPEDTAINYCAADYSHLPIAWYYYWGQGTQVTVSS”: the “polyreactivity (PSR sort gate)” value is “low polyreactivity”.
Turning to “QVQLVESGGGLVQAGGSLRLSCAASGNTFIYYGMGWYRQAPGKERELVAAITWSGGSTYYADSVKGRFTISRDNAKNTVYLQMNSLKPEETAVYYCAKFTHNYYYWGQGTQVTVSS”, the “polyreactivity (PSR sort gate)” value is recorded as “high polyreactivity”.
Take “QVQLVESGGGLVQAGGSLRLSCAASGNTFLRNTMGWYRQAPGTERELVAAISWGGGTTYYADSVKGRFTISRDNAKNTVYLQMNILKPEDTAVYYCNARYYSRRGNSWGQGTQVTVSS”: the “polyreactivity (PSR sort gate)” value is “high polyreactivity”.
As for “QVQLVESGGGLVQAGGSLRLSCAASGNTFNANAMGWYRQAPGKERELVAVISANGGRTYYADSVKGRFTISRDNAKNTVYLQMNSLKPEDTAVYYCATGRYGGQGYPFYYWGQGTQVTVSS”, the “polyreactivity (PSR sort gate)” value is “low polyreactivity”.
As to “QVQLVESGGGLVQAGGSLRLSCAASGNTFNPNAMGWYRQAPGKERELVAVIRFRGGSTYYADSVKGRFTISRDNAKNTVYLQMNSLKPEDTAVYYCNVYRGRYLYAWRPRGYWGQGTQVTVSS”, the “polyreactivity (PSR sort gate)” value is listed as “high polyreactivity”.
With “QVQLVESGGGLVQAGGSLRLSCAASGNTFNSYAMGWYRQAPGKERELVAAISSSTGRTYYADSVKGRFTISRDNAKNTVYLQMNSLKPEDTAVYYCNAYLYLSRNGYWGQGTQVTVSS”, the “polyreactivity (PSR sort gate)” value is “high polyreactivity”.
